Here are results for 18 molecules from US20100166764A1 (Eli Lilly, published 2010).

Assay [1] deals with T1, mature myostatin (human, murine, rat, chicken, turkey, …, UniProt O08689 268-376 (mouse entry)).
T1 sequence: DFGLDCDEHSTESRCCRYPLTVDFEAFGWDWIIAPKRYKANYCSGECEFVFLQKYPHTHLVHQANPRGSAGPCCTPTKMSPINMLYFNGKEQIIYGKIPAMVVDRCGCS
The assay is described as follows: cell-based or functional assay.

The target in assay [2] is T1, mature myostatin. The assay is described as follows: ELISA, myostatin coated, periprep Fab titrated, anti-human-kappa-AP. The protocol:
ELISA plates are coated with myostatin diluted to 4 ug/ml in carbonate buffer (50 mM NaHCO₃ pH 8.3) and 50 μL added per well. Plates are covered with sealing tape and incubate overnight at 4° C. Thereafter, plates (Greiner U-bottom plates Cat #650061) are washed three times with PBS-T (0.1% Tween-20) using an automatic plate washer. 200 μL of blocking buffer (PBS+1% BSA+0.1% Tween-20) is added to every well and incubated at room temperature for one hour. Plates are washed and 50 μl of sample added per well. Samples are composed of periprep Fabs diluted in PBST/BSA starting at a 1:3 dilution and then serially diluted in half-log steps. Plates are washed and 50 μL of secondary antibody solution (1:2000 goat anti-human-kappa-AP Southern Biotech Cat # 2060-04 in PBST/BSA) is added to every well. Following an additional wash step, 100 μL of AP substrate is added per well and incubates at room temperature for about 10 minutes. The absorbance or OD at 560 nm is read. C12 or 510C2 is included on each ELISA plate as an affinity reference standard. The concentration of Fabs is determined by a quantitative ELISA using an anti-Fd antibody (Sheep anti-Fd Biodesign) to capture protein and goat anti-human-kappa-AP (Southern Biotech) to detect. A purified Fab standard is run on each plate to generate a standard curve for the concentration determinations.

B1: Mab C12 (antibody, V domains shown)
VH: QLQLQESGPGLVKPSETLSLTCTVSGFSLRKVGSSVSWIRQPPGKGLEWIGHIYWDDDKRLNPSLRNRVTISVDTSKNQFSLKLSSVTAADTAVYYCARRAITTVIGGGTFDLWGQGTLVTVSS
VL: DIQMTQSPSSLSASVGDRVTITCSASSSISYMHWYQQKPGKAPKLLIYDTSKLARGVPSRFSGSGSGTDFTLTISSLQPEDFATYYCQQWYLNPLTFGGGTKVEIKR
On to B1, for which the “IC50 in the myostatin/SBE reporter assay (luciferase, HEK293 EBNA cells)” value in the assay with mature myostatin [1] was approximately 9.59 nM.

B2: C12 Fab with the Asn residue in CDRL3 replaced with proline (Fab, V domains shown)
VH: QLQLQESGPGLVKPSETLSLTCTVSGFSLRKVGSSVSWIRQPPGKGLEWIGHIYWDDDKRLNPSLRNRVTISVDTSKNQFSLKLSSVTAADTAVYYCARRAITTVIGGGTFDLWGQGTLVTVSS
VL: DIQMTQSPSSLSASVGDRVTITCSASSSISYMHWYQQKPGKAPKLLIYDTSKLARGVPSRFSGSGSGTDFTLTISSLQPEDFATYYCQQWYLPPLTFGGGTKVEIKR
notes: Periprep Fab
For the molecule B2, in the assay with mature myostatin [2], the binding result is on record as “binds”.

B3: C12 Fab with the Asn residue in CDRL3 replaced with cysteine (Fab, V domains shown)
VH: QLQLQESGPGLVKPSETLSLTCTVSGFSLRKVGSSVSWIRQPPGKGLEWIGHIYWDDDKRLNPSLRNRVTISVDTSKNQFSLKLSSVTAADTAVYYCARRAITTVIGGGTFDLWGQGTLVTVSS
VL: DIQMTQSPSSLSASVGDRVTITCSASSSISYMHWYQQKPGKAPKLLIYDTSKLARGVPSRFSGSGSGTDFTLTISSLQPEDFATYYCQQWYLCPLTFGGGTKVEIKR
notes: Periprep Fab
Regarding B3, in the assay with mature myostatin [2], the binding result is “binds”.

B4: C12 Fab with the Asn residue in CDRL3 replaced with methionine (Fab, V domains shown)
VH: QLQLQESGPGLVKPSETLSLTCTVSGFSLRKVGSSVSWIRQPPGKGLEWIGHIYWDDDKRLNPSLRNRVTISVDTSKNQFSLKLSSVTAADTAVYYCARRAITTVIGGGTFDLWGQGTLVTVSS
VL: DIQMTQSPSSLSASVGDRVTITCSASSSISYMHWYQQKPGKAPKLLIYDTSKLARGVPSRFSGSGSGTDFTLTISSLQPEDFATYYCQQWYLMPLTFGGGTKVEIKR
notes: Periprep Fab
Take B4: in the assay with mature myostatin [2], the binding result is on record as “binds”.

B5: C12 Fab with the Asn residue in CDRL3 replaced with serine (Fab, V domains shown)
VH: QLQLQESGPGLVKPSETLSLTCTVSGFSLRKVGSSVSWIRQPPGKGLEWIGHIYWDDDKRLNPSLRNRVTISVDTSKNQFSLKLSSVTAADTAVYYCARRAITTVIGGGTFDLWGQGTLVTVSS
VL: DIQMTQSPSSLSASVGDRVTITCSASSSISYMHWYQQKPGKAPKLLIYDTSKLARGVPSRFSGSGSGTDFTLTISSLQPEDFATYYCQQWYLSPLTFGGGTKVEIKR
notes: Periprep Fab
For the molecule B5, the binding result with mature myostatin [2] was “binds”.

B6: C12 Fab with the Asn residue in CDRL3 replaced with leucine (Fab, V domains shown)
VH: QLQLQESGPGLVKPSETLSLTCTVSGFSLRKVGSSVSWIRQPPGKGLEWIGHIYWDDDKRLNPSLRNRVTISVDTSKNQFSLKLSSVTAADTAVYYCARRAITTVIGGGTFDLWGQGTLVTVSS
VL: DIQMTQSPSSLSASVGDRVTITCSASSSISYMHWYQQKPGKAPKLLIYDTSKLARGVPSRFSGSGSGTDFTLTISSLQPEDFATYYCQQWYLLPLTFGGGTKVEIKR
notes: Periprep Fab
Consider B6, for which the binding result with mature myostatin [2] was “binds”.

B7: C12 Fab with the Asn residue in CDRL3 replaced with aspartic acid (Fab, V domains shown)
VH: QLQLQESGPGLVKPSETLSLTCTVSGFSLRKVGSSVSWIRQPPGKGLEWIGHIYWDDDKRLNPSLRNRVTISVDTSKNQFSLKLSSVTAADTAVYYCARRAITTVIGGGTFDLWGQGTLVTVSS
VL: DIQMTQSPSSLSASVGDRVTITCSASSSISYMHWYQQKPGKAPKLLIYDTSKLARGVPSRFSGSGSGTDFTLTISSLQPEDFATYYCQQWYLDPLTFGGGTKVEIKR
notes: Periprep Fab
For B7, in the assay with mature myostatin [2], the binding result is recorded as “binds”.

B8: C12 Fab with the Asn residue in CDRL3 replaced with glutamic acid (Fab, V domains shown)
VH: QLQLQESGPGLVKPSETLSLTCTVSGFSLRKVGSSVSWIRQPPGKGLEWIGHIYWDDDKRLNPSLRNRVTISVDTSKNQFSLKLSSVTAADTAVYYCARRAITTVIGGGTFDLWGQGTLVTVSS
VL: DIQMTQSPSSLSASVGDRVTITCSASSSISYMHWYQQKPGKAPKLLIYDTSKLARGVPSRFSGSGSGTDFTLTISSLQPEDFATYYCQQWYLEPLTFGGGTKVEIKR
notes: Periprep Fab
With B8, the binding result with mature myostatin [2] was “binds”.

B9: C12 Fab with the Asn residue in CDRL3 replaced with valine (Fab, V domains shown)
VH: QLQLQESGPGLVKPSETLSLTCTVSGFSLRKVGSSVSWIRQPPGKGLEWIGHIYWDDDKRLNPSLRNRVTISVDTSKNQFSLKLSSVTAADTAVYYCARRAITTVIGGGTFDLWGQGTLVTVSS
VL: DIQMTQSPSSLSASVGDRVTITCSASSSISYMHWYQQKPGKAPKLLIYDTSKLARGVPSRFSGSGSGTDFTLTISSLQPEDFATYYCQQWYLVPLTFGGGTKVEIKR
notes: Periprep Fab
In the case of B9, in the assay with mature myostatin [2], the binding result was “binds”.

B10: C12 Fab with the Asn residue in CDRL3 replaced with glutamine (Fab, V domains shown)
VH: QLQLQESGPGLVKPSETLSLTCTVSGFSLRKVGSSVSWIRQPPGKGLEWIGHIYWDDDKRLNPSLRNRVTISVDTSKNQFSLKLSSVTAADTAVYYCARRAITTVIGGGTFDLWGQGTLVTVSS
VL: DIQMTQSPSSLSASVGDRVTITCSASSSISYMHWYQQKPGKAPKLLIYDTSKLARGVPSRFSGSGSGTDFTLTISSLQPEDFATYYCQQWYLQPLTFGGGTKVEIKR
notes: Periprep Fab
Turning to B10, in the assay with mature myostatin [2], the binding result is “binds”.

B11: C12 Fab with the Asn residue in CDRL3 replaced with tyrosine (Fab, V domains shown)
VH: QLQLQESGPGLVKPSETLSLTCTVSGFSLRKVGSSVSWIRQPPGKGLEWIGHIYWDDDKRLNPSLRNRVTISVDTSKNQFSLKLSSVTAADTAVYYCARRAITTVIGGGTFDLWGQGTLVTVSS
VL: DIQMTQSPSSLSASVGDRVTITCSASSSISYMHWYQQKPGKAPKLLIYDTSKLARGVPSRFSGSGSGTDFTLTISSLQPEDFATYYCQQWYLYPLTFGGGTKVEIKR
notes: Periprep Fab
In the case of B11, the binding result with mature myostatin [2] was “binds”.

B12: C12 Fab with the Asn residue in CDRL3 replaced with phenylalanine (Fab, V domains shown)
VH: QLQLQESGPGLVKPSETLSLTCTVSGFSLRKVGSSVSWIRQPPGKGLEWIGHIYWDDDKRLNPSLRNRVTISVDTSKNQFSLKLSSVTAADTAVYYCARRAITTVIGGGTFDLWGQGTLVTVSS
VL: DIQMTQSPSSLSASVGDRVTITCSASSSISYMHWYQQKPGKAPKLLIYDTSKLARGVPSRFSGSGSGTDFTLTISSLQPEDFATYYCQQWYLFPLTFGGGTKVEIKR
notes: Periprep Fab
As to B12, the binding result with mature myostatin [2] is “binds”.

B13: C12 Fab with the Asn residue in CDRL3 replaced with threonine (Fab, V domains shown)
VH: QLQLQESGPGLVKPSETLSLTCTVSGFSLRKVGSSVSWIRQPPGKGLEWIGHIYWDDDKRLNPSLRNRVTISVDTSKNQFSLKLSSVTAADTAVYYCARRAITTVIGGGTFDLWGQGTLVTVSS
VL: DIQMTQSPSSLSASVGDRVTITCSASSSISYMHWYQQKPGKAPKLLIYDTSKLARGVPSRFSGSGSGTDFTLTISSLQPEDFATYYCQQWYLTPLTFGGGTKVEIKR
notes: Periprep Fab
On to B13, for which the binding result with mature myostatin [2] is listed as “binds”.

B14: C12 Fab with the Asn residue in CDRL3 replaced with tryptophan (Fab, V domains shown)
VH: QLQLQESGPGLVKPSETLSLTCTVSGFSLRKVGSSVSWIRQPPGKGLEWIGHIYWDDDKRLNPSLRNRVTISVDTSKNQFSLKLSSVTAADTAVYYCARRAITTVIGGGTFDLWGQGTLVTVSS
VL: DIQMTQSPSSLSASVGDRVTITCSASSSISYMHWYQQKPGKAPKLLIYDTSKLARGVPSRFSGSGSGTDFTLTISSLQPEDFATYYCQQWYLWPLTFGGGTKVEIKR
notes: Periprep Fab
On to B14, for which the binding result in the assay with mature myostatin [2] is “binds”.

B15: C12 Fab with the Asn residue in CDRL3 replaced with lysine (Fab, V domains shown)
VH: QLQLQESGPGLVKPSETLSLTCTVSGFSLRKVGSSVSWIRQPPGKGLEWIGHIYWDDDKRLNPSLRNRVTISVDTSKNQFSLKLSSVTAADTAVYYCARRAITTVIGGGTFDLWGQGTLVTVSS
VL: DIQMTQSPSSLSASVGDRVTITCSASSSISYMHWYQQKPGKAPKLLIYDTSKLARGVPSRFSGSGSGTDFTLTISSLQPEDFATYYCQQWYLKPLTFGGGTKVEIKR
notes: Periprep Fab
Regarding B15, the binding result with mature myostatin [2] is recorded as “binds”.

B16: C12 Fab with the Asn residue in CDRL3 replaced with glycine (Fab, V domains shown)
VH: QLQLQESGPGLVKPSETLSLTCTVSGFSLRKVGSSVSWIRQPPGKGLEWIGHIYWDDDKRLNPSLRNRVTISVDTSKNQFSLKLSSVTAADTAVYYCARRAITTVIGGGTFDLWGQGTLVTVSS
VL: DIQMTQSPSSLSASVGDRVTITCSASSSISYMHWYQQKPGKAPKLLIYDTSKLARGVPSRFSGSGSGTDFTLTISSLQPEDFATYYCQQWYLGPLTFGGGTKVEIKR
notes: Periprep Fab
On to B16, for which the binding result in the assay with mature myostatin [2] is “binds”.

B17: C12 Fab with the Asn residue in CDRL3 replaced with alanine (Fab, V domains shown)
VH: QLQLQESGPGLVKPSETLSLTCTVSGFSLRKVGSSVSWIRQPPGKGLEWIGHIYWDDDKRLNPSLRNRVTISVDTSKNQFSLKLSSVTAADTAVYYCARRAITTVIGGGTFDLWGQGTLVTVSS
VL: DIQMTQSPSSLSASVGDRVTITCSASSSISYMHWYQQKPGKAPKLLIYDTSKLARGVPSRFSGSGSGTDFTLTISSLQPEDFATYYCQQWYLAPLTFGGGTKVEIKR
notes: Periprep Fab
In the case of B17, in the assay with mature myostatin [2], the binding result is on record as “binds”.

B18: C12 Fab with the Asn residue in CDRL3 replaced with isoleucine (Fab, V domains shown)
VH: QLQLQESGPGLVKPSETLSLTCTVSGFSLRKVGSSVSWIRQPPGKGLEWIGHIYWDDDKRLNPSLRNRVTISVDTSKNQFSLKLSSVTAADTAVYYCARRAITTVIGGGTFDLWGQGTLVTVSS
VL: DIQMTQSPSSLSASVGDRVTITCSASSSISYMHWYQQKPGKAPKLLIYDTSKLARGVPSRFSGSGSGTDFTLTISSLQPEDFATYYCQQWYLIPLTFGGGTKVEIKR
notes: Periprep Fab
As to B18, the binding result in the assay with mature myostatin [2] is listed as “binds”.
